Reference: patent publication US11008365B2 (NATIONAL INSTITUTE OF ADVANCED INDUSTRIAL SCIENCE AND …, priority 2016, dated 2021)
Entries after “also recorded” stand apart in the source; their conditions may differ.

What was measured:
[1] = molecular target: T1, CH1-CL domain forming a non-native three-dimensional structure (Homo sapiens, UniProt P01834+P01857); test: SPR of synthetic peptides on immobilized acid-treated CH1-CL domain; assay type: binding; conditions: for Non-native CH1-CL domain (whether affinity was present or not): SPR Biacore T100, peptides 4-1 μM (FIG. 5), 50-1.6 μM (FIG. 6), 64-2 μM (FIG. 7); for affinity / binding response compared to AF.ab9: SPR, non-native CH1-CL domain immobilized, FIGS. 6 and 7
T1 construct: made in house; host or cells: Escherichia coli BL21(DE3)
Excerpt: Here, the AF.ab9 body is a 16-residue polypeptide consisting of the 8-residue linker region and the 8-residue microprotein chignolin, and the AF.ab9 arm is a 10-residue polypeptide consisting of a region selected from the random amino acid sequences. The preparation of the polypeptides was entrusted to GL Biochem (Shanghai). […] The measurement conditions were in accordance with those in the paragraph 3).
The CH1-CL domain forming a non-native three-dimensional structure prepared by the same method as in the paragraph 3) was immobilized on a sensor chip CM5 (GE Healthcare) by amine coupling, and the binding thereof to AF.ab31, AF.ab9, and alanine substitution products was measured with Biacore T100 (FIGS. 6 and 7, Table 3).

human monoclonal IgG = test: SPR of IgG (native or acid-treated) on immobilized AF.ab9; assay type: binding
Procedure: (§1) Preparation of the synthesized polypeptide was entrusted to GL Biochem (Shanghai). AF.ab9 was dissolved in a boric acid buffer solution (10 mM Borate-Na, 1 M NaCl, pH 8.5) and was immobilized on a sensor chip CM5 (GE Healthcare) by amine coupling.
(§2) Subsequently, human monoclonal IgG, Fab region, and Fc region having a native three-dimensional structure and a non-native three-dimensional structure were prepared. The Fab region and Fc region were prepared by subjecting human monoclonal IgG to papain digestion with Pierce (registered trademark) Fab Preparation Kit (Thermo Fisher Scientific Inc.) and then to purification by affinity chromatography using MabSelect SuRe (GE Healthcare), anion exchange chromatography using HiTrap DEAE (GE Healthcare), and gel filtration chromatography using Superdex 200 (GE Healthcare). The IgG, Fab region, and Fc region were each diluted to 5 μM and dialyzed against an acid buffer solution (50 mM NaH2PO4, 100 mM NaCl, pH 2.0) for 12 hours for accelerating acid denaturation and dialyzed against an HBS-T buffer solution for neutralization.
Subsequently, an example of evaluating the affinity of AF.ab9 for IgG treated with buffer solutions having different degrees of acidity will be described. IgG was dissolved in an HBS buffer solution (10 mM HEPES, 150 mM NaCl, pH 7.4) at a concentration of 5 μM. The acidity of a sodium phosphate buffer solution (50 mM NaH2PO4, 100 mM NaCl) as an acid buffer solution was adjusted to three degrees of pH 2.0, pH 3.0, and pH 4.0. An antibody was dialyzed against each of the buffer solutions for 12 hours and was then dialyzed against an HBS-T buffer solution for neutralization. The affinity of each of the resulting acid-treated IgG for AF.ab9 was measured by SPR (FIG. 4, Table 2). The SPR test was conducted in accordance with the conditions described above in this paragraph. […] Regarding the acid denaturation of the CH1-CL domain, it has been reported as the results of analysis by spectroscopic methods such as CD spectrum and fluorescence spectrum that a clear change in the three-dimensional structure of the CH1-CL domain occurs between pH 4.0 and pH 3.0 (Non Patent Literature 32).

Fab region = test: SPR of Fab region (native or acid-treated) on immobilized AF.ab9; assay type: binding, human
Procedure: as §1, §2

Fc region = test: SPR of Fc region (native or acid-treated) on immobilized AF.ab9; assay type: binding, human
Procedure: as §1, §2

Row | Sequence | Non-native CH1-CL domain (whether affinity was present or not) [1] | affinity / binding response compared to AF.ab9 [1] | other results
1 | PQEIRLILNW (Synthetic IgG binding peptide) [AF.ab9 arm] | showed affinity; also recorded: Binding | – | –
2 | PNSGGGGSYDPETGTWPQEIRLILNW (Synthetic IgG binding peptide) [AF.ab9] | showed affinity; also recorded: Binding | – | affinity for AF.ab9: pH 2.0-treated IgG (human monoclonal IgG; IgG treated with acid buffer pH 2.0 for 12 hours, neutralized, 2-0.125 μM): strong binding response; also recorded: clear binding responses; affinity for AF.ab9: pH 3.0-treated IgG (human monoclonal IgG; IgG treated with acid buffer pH 3.0, neutralized, 2-0.125 μM): clear binding responses; affinity for AF.ab9: pH 4.0-treated IgG (human monoclonal IgG; IgG treated with acid buffer pH 4.0, neutralized, 2-0.125 μM): did not show a significant binding response; also recorded: No-binding; affinity for AF.ab9: Native IgG (human monoclonal IgG; acid-untreated IgG 2-0.125 μM, AF.ab9 immobilized on CM5): did not show a significant binding response; also recorded: No-binding; affinity for AF.ab9: pH 2.0-treated Fab (Fab region; Fab region treated with acid buffer pH 2.0, neutralized, 2-0.125 μM): strong binding response; affinity for AF.ab9: Native Fab (Fab region; acid-untreated Fab region 2-0.125 μM): did not show a significant binding response; also recorded: No-binding; affinity for AF.ab9: pH 2.0-treated Fc (Fc region; Fc region treated with acid buffer pH 2.0, neutralized, 2-0.125 μM): No-binding; affinity for AF.ab9: Native Fc (Fc region; acid-untreated Fc region 2-0.125 μM): did not show a binding response; also recorded: No-binding; binding response to the acid-treated Fc region compared with that on the non-native structure of the Fab region (Fc region; pH 2.0-treated Fc versus pH 2.0-treated Fab, SPR): 1/100
3 | PNSGGGGSYDPETGTWAQEIRLILNW [AF.ab9 P17A] | Binding | the binding response decreased | –
4 | PNSGGGGSYDPETGTWPQEIRLIANW [AF.ab9 L24A] | Binding | the binding response decreased | –
5 | PNSGGGGSYDPETGTWPQWITLTITY (Synthetic IgG binding peptide) [AF.ab31] | Binding | substantially equivalent | –
6 | PNSGGGGSYDPETGTWPAEIRLILNW [AF.ab9 Q18A] | Binding | – | –
